In doi:10.1101/2025.10.11.676729:

Target: Pyrococcus abyssi 70S ribosome (Pyrococcus abyssi (endogenous in P. abyssi)) (UniProt Q9V109)
Assay: cryo-EM structure

Chain of UniProt Q9V109 (Q9V109 whole entry, looked up): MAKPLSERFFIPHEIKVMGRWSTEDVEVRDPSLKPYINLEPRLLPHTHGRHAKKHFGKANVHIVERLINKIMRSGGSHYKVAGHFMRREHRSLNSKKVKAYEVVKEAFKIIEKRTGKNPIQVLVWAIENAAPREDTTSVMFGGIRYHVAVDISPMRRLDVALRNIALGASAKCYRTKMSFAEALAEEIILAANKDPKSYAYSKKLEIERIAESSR

B1: Hib, endogenous, bound to ribosomes isolated from Pyrococcus abyssi cell extracts (natural protein)
chain: MVGIQVQEVMTDRYAKIDINAPLSEAIGIIEKEDPDLILVFDDNVYKGVLTQDLIIRSHLKWDPTKAKVRDVYKPAPVVKPTDDLSHAAKLLLETDLRSLPVGENKAEILGVISDMALLERVVAEEFGKRKVEEFMTKDVITLGPDDTVAKALATMRDHGISRIPVVDEEGKLEGLVTLHDLIIRFIKPRFKAQYGELAGEKIPPFSMKLREAMIKGVITIMPEATIREAVSTMKDNNIDGLVVVDENNKVVGILTVKDLLLPISRMVEKEARFYLQLGGDASALSEFTRERIINDIKRFVDGYADLLGNEGIIYLYIRRFNEKFRGVHLYQARMRVVTDRGVFIARGETWGAIQAVHDAIRAIERQLLQKAELERDIRYAKRFIEKLELWR
**Q.** B1 was tested. Which percent of 70S particles that contained Hib did it give?
**A.** 51.6%
